How the values were obtained:
[1] = biological target: endogenous Fas of Jurkat cells (human) (UniProt P25445); experiment: cell-based or functional assay
[2] = system: caspase-3 activation in Hepa 1-6 cells; experiment: Cleaved Caspase 3 in apoptotic Hepa 1-6 cell lysates; assay type: cell-based, mouse
Protocol: (§1) For FIG. 4a, Jurkat cells (1.5×10^5) were overnight treated in triplicate with 5 ng/ml of crosslinked human Fas ligand with or without 5 μg/ml of recombinant AlphaMet or 1 μg/ml of the indicated polypeptides. Percent apoptosis was determined by Trypan Blue staining using a hemocytometer. The data are representative and were repeated at least four times. […] The 17 kDa fragment of cleaved Caspase 3 is visualized by this antibody. The blot was reprobed for β-actin as a loading control. For FIG. 4c, serum deprived Hepa 1-6 cells (3×10^5) were overnight treated with 1 μg/ml of crosslinked mouse Fas ligand with or without AlphaMet or the indicated polypeptide. Media were collected and centrifuged to pellet the dead cells. […] The data in FIG. 4c represents three independent experiments.

Jurkat cells = experiment: Fas-ligand induced apoptosis in Jurkat cells (Trypan Blue, flow cytometry); assay type: cell-based, human
Protocol: as §1
Apoptosis assay. Pre-washed Jurkat cells in RPMI 1640 medium containing 1% FBS were inoculated in 96-wells at a density of 10^5 cells per well. Apoptosis was induced by cross-linked human Fas-ligand (R&D Systems) at a concentration of 0.5 ng/ml or Anti-Fas (human, activating) clone CH11 (Upstate biotechnology) at a concentration of 500 ng /ml. Hepa 1-6 cells were overnight starved before induction of apoptosis. The apoptosis in Hepa 1-6 was induced by anti-mouse Fas antibody Jo2 (200 ng/ml) or human recombinant Fas-ligand. The extent of cell viability and apoptosis was determined by several methods such as Trypan Blue stain, flow cytometry, LDH assay, and Hoechst staining.

[3] = biological target: T1, Fas-Fc (extracellular part of Fas) (Mus musculus, UniProt P25446); experiment: Fas-Fc pull down assay with protein-A agarose; assay type: binding
T1 construct: purchased R&D
T1 sequence (P25446 22-169 limits assumed): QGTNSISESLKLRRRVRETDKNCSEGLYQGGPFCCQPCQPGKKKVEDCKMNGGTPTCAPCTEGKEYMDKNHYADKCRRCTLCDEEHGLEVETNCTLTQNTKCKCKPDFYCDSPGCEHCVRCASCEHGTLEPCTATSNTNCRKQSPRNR
From the text: The Met alpha but not beta chain binds to Fas (FIG. 1a). Various regions of the mouse Met cDNA corresponding to the alpha chain or the extra-cellular portion of the Met beta chain were cloned into expression vectors (pCRT7 TOPO/AlphaMet or pCRT7 TOPO/beta chain) and subjected to in vitro transcription/translation by a rabbit reticolucyte lysate translation system. Empty vector was included in each experiment as a control. The expressed proteins were labeled with ^35S-Methionine. Pull down assays were performed using Fas-Fc, a chimeric molecule which lacks the interacellular cytoplasmic domain and protein-A agarose as described in Wang et al., 2002. FIG. 1b is a schematic presentation of the Met alpha chain and its mutant version used to map the region interacting with Fas. The C-terminus of each construct contains a hexa-Histidine tag for ease of detection. Start cordon ATG was added to the N-terminally truncated constructs. The YLGA (SEQ ID NO:1) motif mutation was prepared by PCR, in which YLGA (SEQ ID NO:1) was replaced by DHER (SEQ ID NO:24). […] In vitro translated ^35S-methionine labeled truncated/mutated AlphaMet proteins were pulled down with 2 μg of Fas-Fc or the same amount of IgG. Lane 1: 10% of AlphaMet input; Lane 2: AlphaMet with IgG control; Lanes 3 to 8: pull down of various truncated AlphaMet proteins; N-terminal 1-106 residues; C-terminal truncated, residues 1-210; alpha chain, residues 1-306; alpha chain with transmembrane domain, 1-338; N-terminally truncated alpha chain, residues 100-306; and N-terminally truncated with addition of the transmembrane domain 100-338, respectively. FIG. 1d depicts the amino acid sequence alignment of alpha chain with FasL, determined using the CLUSTALW, SIM+LALNVIEW, and ALIGN at ExPASy Proteomic Tools (available on the internet at us.expresly.org/tools). The numbers indicate the amino acid residues of the indicated protein. […] Recombinant His-tagged AlphaMet or its mutant version were expressed in E. coli, purified with chromatography, and subjected to Fas-Fc (lanes labeled Fas) or control IgG pull down experiments, and detected by Western blot using anti-His antibody that recognizes C-terminal His. This antibody also recognizes the Fas-Fc which is also tagged at the C-terminus by His. […] Purified recombinant AlphaMet protein (approximately 10 μg) was mixed with Hepa 1-6 cells or Jurkat cell lysates and subjected to immunoprecicitation using anti-Fas antibody or control IgG followed by Western blot using anti His-tag antibody as a probe. […] After washing the wells, anti-human […]-HRP conjugates (1:20,000) were added to detect the bound Fas-Fc using TMD dye and the OD value was determined at a wavelength of 450 nm. […]

Chain of endogenous Fas of Jurkat cells (human) (P25445 26-335): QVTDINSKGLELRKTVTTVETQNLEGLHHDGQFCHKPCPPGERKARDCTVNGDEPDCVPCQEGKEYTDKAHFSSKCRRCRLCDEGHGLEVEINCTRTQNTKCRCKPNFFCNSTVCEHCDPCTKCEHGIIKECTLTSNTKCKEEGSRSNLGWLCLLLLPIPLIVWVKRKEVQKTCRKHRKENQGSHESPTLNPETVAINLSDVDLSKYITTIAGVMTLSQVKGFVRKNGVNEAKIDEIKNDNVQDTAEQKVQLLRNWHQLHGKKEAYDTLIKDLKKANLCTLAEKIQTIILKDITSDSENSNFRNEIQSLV

sub-G1 population of Jurkat cells treated with Fas-ligand (Propidium Iodide, flow cytometry) [1]: 8%
Fas binding in Fas-Fc pull down ([3]; in vitro translated 35S-labeled proteins, autoradiography, listed as Met alpha chain): bound specifically to the Fas molecule
Fas binding in Fas-Fc pull down ([3]; in vitro translated 35S-labeled proteins, autoradiography, listed as full length AlphaMet): bound Fas very efficiently
Fas binding in Fas-Fc pull down ([3]; recombinant His-tagged proteins expressed and purified in E. coli, Western blot anti-His): bound avidly
B1: alpha subunit of Met (AlphaMet), amino acid residues 1 to 306, His-tagged (receptor, mouse)
chain: MKAPTVLAPGILVLLLSLVQRSHGECKEALVKSEMNVNMKYQLPNFTAETPIQNVVLHGHHIYLGATNYIYVLNDKDLQKVSEFKTGPVLEHPDCLPCRDCSSKANSSGGVWKDNINMALLVDTYYDDQLISCGSVNRGTCQRHVLPPDNSADIQSEVHCMFSPEEESGQCPDCVVSALGAKVLLSEKDRFINFFVGNTINSSYPPGYSLHSISVRRLKETQDGFKFLTDQSYIDVLPEFLDSYPIKYIHAFESNHFIYFLTVQKETLDAQTFHTRIIRFCSVDSGLHSYMEMPLECILTEKRRKRHHHHHH
death rate of Jurkat cells treated with Fas-ligand (Trypan Blue) [1]: 12%
Activation of caspase-3 [2]: also inhibited by the wild type
death rate (Jurkat cells; Fas-ligand overnight, AlphaMet 5 μg/ml, Trypan Blue): 12%
sub-G1 (apoptotic) population (Jurkat cells; Propidium Iodide flow cytometry, Fas-ligand): 8%
